Reference: publication PMC5818423

B1: Human wild-type adenosine deaminase (ADA) [human] / A2AR-Nluc-spacer (human adenosine receptor fused to NanoLuc on the N-terminal end, with spacer) [human] (parent)
chain 1: MAQTPAFDKPKVELHVHLDGSIKPETILYYGRRRGIALPANTAEGLLNVIGMDKPLTLPDFLAKFDYYMPAIAGCREAIKRIAYEFVEMKAKEGVVYVEVRYSPHLLANSKVEPIPWNQAEGDLTPDEVVALVGQGLQEGERDFGVKARSILCCMRHQPNWSPKVVELCKKYQQQTVVAIDLAGDETIPGSSLLPGHVQAYQEAVKSGIHRTVHAGEVGSAEVVKEAVDILKTERLGHGYHTLEDQALYNRLRQENMHFEICPWSSYLTGAWKPDTEHAVIRLKNDQANYSLNTDDPLIFKSTLDTDYQMTKRDMGFTEEEFKRLNINAAKSSFLPEDEKRELLDLLYKAYGMPPSASAGQNL
chain 2: MPIMGSSVYITVELAIAVLAILGNVLVCWAVWLNSNLQNVTNYFVVSLAAADIAVGVLAIPFAITISTGFCAACHGCLFIACFVLVLTQSSIFSLLAIAIDRYIAIRIPLRYNGLVTGTRAKGIIAICWVLSFAIGLTPMLGWNNCGQPKEGKNHSQGCGEGQVACLFEDVVPMNYMVYFNFFACVLVPLLLMLGVYLRIFLAARRQLKQMESQPLPGERARSTLQKEVHAAKSLAIIVGLFALCWLPLHIINCFTFFCPDCSHAPLWLMYLAIVLSHTNSVVNPFIYAYRIREFRQTFRKIIRSHVLRQQEPFKAAGTSARVLAAHGSDGEQVSLRLNGHPPGVWANGSAPHPERRPNGYALGLVSGGSAQESQGNTGLPDVELLSHELKGVCPEPPGLDDPLAQDGAGVS

Variants of: B1
Assay: NanoBRET between mixed cells (A2AR-Nluc-spacer cells + CD26-YFP cells bridged by ADA)
Conditions: ADA at 1 μg/ml, 10 min incubation in HBSS without shaking, HEK-293T cells, untreated (0) control est. 4.6 mBU, parent: 35, read off a plot

| response [mBU] | Variant |
| --- | --- |
| 6.7 | chain 1 MAQTPAFDKPKVELHVHLDGSIKPETILYYGRRRGIALPANTAEGLLNVIGMDKPLTLPDFAAKFDYYMPAIAGCREAIKRIAYEFVEMKAKEGVVYVEVRYSPHLLANSKVEPIPWNQAEGDLTPDEVVALVGQGLQEGERDFGVKARSILCCMRHQPNWSPKVVELCKKYQQQTVVAIDLAGDETIPGSSLLPGHVQAYQEAVKSGIHRTVHAGEVGSAEVVKEAVDILKTERLGHGYHTLEDQALYNRLRQENMHFEICPWSSYLTGAWKPDTEHAVIRLKNDQANYSLNTDDPLIFKSTLDTDYQMTKRDMGFTEEEFKRLNINAAKSSFLPEDEKRELLDLLYKAYGMPPSASAGQNL [chain 1 L62A] |
| 7.3 | chain 1 MAQTPAFDKPKVELHVHLDGSIKPETILYYGRRRGIALPANTAEGLLNVIGMDKPLTAPDFLAKFDYYMPAIAGCREAIKRIAYEFVEMKAKEGVVYVEVRYSPHLLANSKVEPIPWNQAEGDLTPDEVVALVGQGLQEGERDFGVKARSILCCMRHQPNWSPKVVELCKKYQQQTVVAIDLAGDETIPGSSLLPGHVQAYQEAVKSGIHRTVHAGEVGSAEVVKEAVDILKTERLGHGYHTLEDQALYNRLRQENMHFEICPWSSYLTGAWKPDTEHAVIRLKNDQANYSLNTDDPLIFKSTLDTDYQMTKRDMGFTEEEFKRLNINAAKSSFLPEDEKRELLDLLYKAYGMPPSASAGQNL [chain 1 L58A] |
